Assay results taken from patent publication US20180355012A1.
pKd: −log10 of the molar value. Values belong to the substance of their own block, whether it stands above or below them.

Legend:
[1] = molecular target: HLA-A1: … pMHC complex (MageA3 tumor specific antigen); assay: BLI (forteBIO Oke), biotinylated pMHC on SA sensor, soluble TCR in solution, 1:1 fit
[2] = molecular target: HLA-A2/… pMHC complex (NY-ESO-1 tumor specific antigen); assay: as above
[3] = molecular target: HLA-B4405: … pMHC complex

Substance: MGA3 TCR with an artificial interchain disulfide bond between position 89 of TRAC*01 exon 1 and position 19 of TRBC1*01 or TRBC2*01 exon 1
pKd [1]: 5.69

Substance: LC13 TCR with an artificial interchain disulfide bond between position 10 of TRAC*01 exon 1 and posi
pKd [3]: 5.00

Results, then the substance that gave them:

pKd [2]: 5.16
Substance: 1G4 TCR with an artificial interchain disulfide bond between position 53 of TRAC*01 exon 1 and position 54 of TRBC1*01 or TRBC2*01 exon 1

pKd [1]: 5.46
Substance: MGA3 TCR with an artificial interchain disulfide bond between position 10 of TRAC*01 exon 1 and position 20 of TRBC1*01 or TRBC2*01 exon 1

pKd [1]: 5.85
Substance: MGA3 TCR with an artificial interchain disulfide bond between position 53 of TRAC*01 exon 1 and position 54 of TRBC1*01 or TRBC2*01 exon 1
